From PMC12084609, “Structural insights into small-molecule agonist recognition and activation of complement receptor C3aR” (The EMBO Journal, 2025)
Residue numbers refer to the chain shown, from its start. Where “and” joins values, the source holds several entries; their conditions need not be identical. Equal values may be shown once. Read-outs that look alike come from different tables or passages of the source.

Columns and labels:
Format in all cases: cell-based
C3aR R161^ECL2A = molecular target: T1, C3aR R161^ECL2A (Homo sapiens, UniProt Q16581, R161A); assay: GloSensor-based cAMP assay, C3aR mutant R161A; details: for cAMP response (% Forskolin): R161ECL2A
T1 construct: expressed in transfected cells; host or cells: HEK293T
T1 sequence (Q16581 1-482 R161A): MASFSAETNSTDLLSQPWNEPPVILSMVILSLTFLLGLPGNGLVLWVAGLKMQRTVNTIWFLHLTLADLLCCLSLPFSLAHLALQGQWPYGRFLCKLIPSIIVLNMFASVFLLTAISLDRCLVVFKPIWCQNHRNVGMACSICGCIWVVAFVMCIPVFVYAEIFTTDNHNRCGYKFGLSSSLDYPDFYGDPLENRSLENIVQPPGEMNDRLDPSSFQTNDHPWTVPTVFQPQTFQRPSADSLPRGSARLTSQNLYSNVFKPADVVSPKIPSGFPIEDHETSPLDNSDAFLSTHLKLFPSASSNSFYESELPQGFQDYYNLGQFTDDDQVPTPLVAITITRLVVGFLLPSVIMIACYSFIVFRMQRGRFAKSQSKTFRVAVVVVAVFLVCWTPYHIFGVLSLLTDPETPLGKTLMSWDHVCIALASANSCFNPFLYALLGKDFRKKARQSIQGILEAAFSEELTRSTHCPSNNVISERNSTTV
Method: (§1) HEK293T cells were seeded on 6-well plates (NEST) and transfected with pGlosensor™-22F plasmids (Promega) and pcDNA3.1 plasmids encoding C3aR or its mutants an with N-terminal FLAG tag. After 48 h, cells were detached with Accutase solution (Sigma-Aldrich) and washed with PBS, and resuspended in assay buffer (CO2-independent medium with 0.5 mg mL^−1D-luciferin). 100,000–200,000 cells were seeded on 96-well white bottom plates (SPL) and incubated at 37 °C for 45 min followed by 45 min incubation at room temperature. After 90 min of incubation, basal luminescence signals were recorded. In total, 25 μl of test ligand with various concentrations and 1 μM Forskolin (Sigma-Aldrich) were treated to the cells and luminescence signals were measured by Tristar 2 LB 942 multimode reader (Berthold). […] Relative luminescence unit (%) was calculated with the signal of wells treated with vehicle as 0% and the signal of wells treated with 1 μM Forskolin as 100% (DiRaddo et al, [2014]). Nonlinear regression was performed using a three-parameter logistic equation.

C3aR I98^3.28A = molecular target: T2, C3aR I98^3.28A (Homo sapiens, UniProt Q16581, I98A); assay: GloSensor-based cAMP assay, C3aR mutant I98A; details: for Mean Diff. of pIC50, WT vs. I98A: Dunnett's multiple comparisons test, WT minus mutant; for ΔpIC50 ± SE of Diff.: I98^3.28A relative to WT C3aR; for cAMP response (% Forskolin): I983.28A
T2 construct: expressed in transfected cells; host or cells: HEK293T
T2 sequence (Q16581 1-482 I98A): T1 sequence (Q16581 1-482 R161A) with I98A, A161R
Method: as §1

[1] = molecular target: T3, C3aR I102^3.32A/I421^7.39A (Homo sapiens, UniProt Q16581, I102A/I421A); assay: GloSensor-based cAMP assay, C3aR double mutant I102A/I421A; details: for cAMP response (% Forskolin): single replicates; for ΔpIC50 ± SE of Diff.: I102^3.32A/I421^7.39A relative to WT C3aR
T3 construct: expressed in transfected cells; host or cells: HEK293T
T3 sequence (Q16581 1-482 I102A/I421A): T1 sequence (Q16581 1-482 R161A) with I102A, A161R, I421A
Method: as §1

[2] = Log[C3a (M)] -7, single replicates
[3] = Log[C3a (M)] -8, single replicates
[4] = Log[C3a (M)] -9, single replicates
[5] = Log[C3a (M)] -10, single replicates
[6] = Log[C3a (M)] -11, single replicates
[7] = Log[C3a (M)] -12, single replicates

C3a: anaphylatoxin C3a, natural peptide ligand of C3aR (a 77-amino acid peptide), Sigma-Aldrich
cAMP response (% Forskolin) (C3aR R161^ECL2A; [2]): 95.22 % Forskolin and 113.23 % Forskolin and 84.95 % Forskolin
cAMP response (% Forskolin) (C3aR R161^ECL2A; [3]): 93.59 % Forskolin and 100.34 % Forskolin and 90.06 % Forskolin
cAMP response (% Forskolin) (C3aR R161^ECL2A; [4]): 101.94 % Forskolin and 107.61 % Forskolin and 95.04 % Forskolin
cAMP response (% Forskolin) (C3aR R161^ECL2A; [5]): 94.48 % Forskolin and 102.25 % Forskolin and 94.73 % Forskolin
cAMP response (% Forskolin) (C3aR R161^ECL2A; [6]): 103.03 % Forskolin and 121.75 % Forskolin and 96.66 % Forskolin
cAMP response (% Forskolin) (C3aR R161^ECL2A; [7]): 95.52 % Forskolin and 105.32 % Forskolin and 102.35 % Forskolin
Mean Diff. of pIC50, WT vs. I98A (C3aR I98^3.28A): 0.113
ΔpIC50 ± SE of Diff. (C3aR I98^3.28A): -0.11 ± 0.02
IC50 (C3aR I98^3.28A; I98^3.28A, dose-response plot, read-out: IC50): 4.07 nM
pIC50 (Replicate) (C3aR I98^3.28A; I98^3.28A, individual replicates): 8.38 (2×) and 8.42 and 8.40 and 8.08 and 8.54 and 8.47
pIC50 ± SEM (Mean) (C3aR I98^3.28A; I98^3.28A, mean of independent experiments): 8.38 ± 0.05 and 8.38
cAMP response (% Forskolin) (C3aR I98^3.28A; [2]): 12.31 % Forskolin and 10.90 % Forskolin and 9.84 % Forskolin and 8.89 % Forskolin and 11.38 % Forskolin and 5.37 % Forskolin and 7.43 % Forskolin
cAMP response (% Forskolin) (C3aR I98^3.28A; [3]): 27.29 % Forskolin and 21.82 % Forskolin and 20.14 % Forskolin and 14.26 % Forskolin and 42.67 % Forskolin and 12.53 % Forskolin and 15.24 % Forskolin
cAMP response (% Forskolin) (C3aR I98^3.28A; [4]): 88.79 % Forskolin and 95.53 % Forskolin and 90.20 % Forskolin and 95.03 % Forskolin and 96.77 % Forskolin and 78.73 % Forskolin and 85.71 % Forskolin
cAMP response (% Forskolin) (C3aR I98^3.28A; [5]): 99.83 % Forskolin and 101.03 % Forskolin and 99.65 % Forskolin and 94.56 % Forskolin and 95.76 % Forskolin and 97.03 % Forskolin and 93.13 % Forskolin
cAMP response (% Forskolin) (C3aR I98^3.28A; [6]): 97.32 % Forskolin and 101.48 % Forskolin and 99.97 % Forskolin and 96.12 % Forskolin and 97.86 % Forskolin and 93.68 % Forskolin and 92.51 % Forskolin
cAMP response (% Forskolin) (C3aR I98^3.28A; [7]): 95.26 % Forskolin and 98.35 % Forskolin and 96.71 % Forskolin and 98.06 % Forskolin and 93.96 % Forskolin and 97.55 % Forskolin and 101.79 % Forskolin
cAMP response (% Forskolin) ([1]; I102A/I421A, Log[C3a (M)] -7): 60.33 % Forskolin and 51.98 % Forskolin and 58.06 % Forskolin
cAMP response (% Forskolin) ([1]; I102A/I421A, Log[C3a (M)] -8): 94.58 % Forskolin and 89.45 % Forskolin and 91.46 % Forskolin
cAMP response (% Forskolin) ([1]; I102A/I421A, Log[C3a (M)] -9): 96.12 % Forskolin and 94.02 % Forskolin and 96.29 % Forskolin
cAMP response (% Forskolin) ([1]; I102A/I421A, Log[C3a (M)] -10): 100.40 % Forskolin and 98.48 % Forskolin and 97.75 % Forskolin
cAMP response (% Forskolin) ([1]; I102A/I421A, Log[C3a (M)] -11): 101.76 % Forskolin and 98.75 % Forskolin and 98.69 % Forskolin
cAMP response (% Forskolin) ([1]; I102A/I421A, Log[C3a (M)] -12): 99.03 % Forskolin and 95.31 % Forskolin and 95.64 % Forskolin
ΔpIC50 ± SE of Diff. [1]: -0.51 ± 0.05
IC50 ([1]; I102^3.32A/I421^7.39A, dose-response plot, read-out: IC50): 10.1 nM
pIC50 (Replicate) ([1]; I102^3.32A/I421^7.39A, individual replicates): 8.09 and 7.94 and 7.95
pIC50 ± SEM (Mean) ([1]; I102^3.32A/I421^7.39A, mean of independent experiments): 7.99
cAMP response (% Forskolin) ([1]; I1023.32A/I4217.39A, Log[C3a (M)] -7): 17.14 % Forskolin and 17.92 % Forskolin and 21.78 % Forskolin
cAMP response (% Forskolin) ([1]; I1023.32A/I4217.39A, Log[C3a (M)] -8): 50.03 % Forskolin and 58.06 % Forskolin and 57.92 % Forskolin
cAMP response (% Forskolin) ([1]; I1023.32A/I4217.39A, Log[C3a (M)] -9): 101.91 % Forskolin and 104.37 % Forskolin and 102.64 % Forskolin
cAMP response (% Forskolin) ([1]; I1023.32A/I4217.39A, Log[C3a (M)] -10): 108.19 % Forskolin and 105.12 % Forskolin and 103.38 % Forskolin
cAMP response (% Forskolin) ([1]; I1023.32A/I4217.39A, Log[C3a (M)] -11): 107.31 % Forskolin and 106.77 % Forskolin and 101.12 % Forskolin
cAMP response (% Forskolin) ([1]; I1023.32A/I4217.39A, Log[C3a (M)] -12): 98.25 % Forskolin and 100.53 % Forskolin and 100.03 % Forskolin

Cc1cc(C(c2ccc(Cl)cc2)c2ccc(Cl)cc2)sc1C(=O)N[C@@H](CCCNC(=N)N)C(=O)O [JR14a, reference compound]
Mean Diff. of pIC50, WT vs. R161A (C3aR R161^ECL2A; Dunnett's multiple comparisons test, WT minus mutant): -0.085
IC50 (C3aR R161^ECL2A; IC50, R161^ECL2A, dose-response plot, Not calculated = entire loss of signaling): 2.28 nM
remaining activity at 1 µM (C3aR R161^ECL2A; R161A, Log[JR14a (M)] -6, single replicates, read-out: cAMP response (% Forskolin)): 11.8%
remaining activity at 0.1 µM (C3aR R161^ECL2A; R161A, Log[JR14a (M)] -7, single replicates, read-out: cAMP response (% Forskolin)): 13.6%
remaining activity at 0.01 µM (C3aR R161^ECL2A; R161A, Log[JR14a (M)] -8, single replicates, read-out: cAMP response (% Forskolin)): 41.3%
remaining activity at 0.001 µM (C3aR R161^ECL2A; R161A, Log[JR14a (M)] -9, single replicates, read-out: cAMP response (% Forskolin)): 79.3%
remaining activity at 0.0001 µM (C3aR R161^ECL2A; R161A, Log[JR14a (M)] -10, single replicates, read-out: cAMP response (% Forskolin)): 99.1%
remaining activity at 10 pM (C3aR R161^ECL2A; R161A, Log[JR14a (M)] -11, single replicates, read-out: cAMP response (% Forskolin)): 108%
ΔpIC50 ± SE of Diff. (C3aR R161^ECL2A; R161^ECL2A relative to WT C3aR): 0.09 ± 0.04
decrease in IC50 values vs WT (C3aR R161^ECL2A; R161^ECL2 to Ala, relatively mild effect on downstream signaling): < 10 fold
IC50 (C3aR R161^ECL2A; pIC50 (Replicate), R161^ECL2A, individual replicates): 3.72 nM and 1.86 nM and 1.74 nM
Mean Diff. of pIC50, WT vs. I98A (C3aR I98^3.28A): 0.356
remaining activity at 0.01 µM (C3aR I98^3.28A; I98A, Log[JR14a (M)] -8, single replicates, read-out: cAMP response (% Forskolin)): 49.1%
remaining activity at 0.001 µM (C3aR I98^3.28A; I98A, Log[JR14a (M)] -9, single replicates, read-out: cAMP response (% Forskolin)): 88.6%
remaining activity at 0.0001 µM (C3aR I98^3.28A; I98A, Log[JR14a (M)] -10, single replicates, read-out: cAMP response (% Forskolin)): 95.5%
remaining activity at 10 pM (C3aR I98^3.28A; I98A, Log[JR14a (M)] -11, single replicates, read-out: cAMP response (% Forskolin)): 93.5%
ΔpIC50 ± SE of Diff. (C3aR I98^3.28A): -0.36 ± 0.02
IC50 (C3aR I98^3.28A; IC50, I98^3.28A, dose-response plot): 9.13 nM
IC50 (C3aR I98^3.28A; pIC50 (Replicate), I98^3.28A, individual replicates): 6.17 nM and 11.5 nM and 9.77 nM
IC50 (C3aR I98^3.28A; pIC50 ± SEM (Mean), I98^3.28A, mean of independent experiments): 8.91 nM
ΔpIC50 ± SE of Diff. [1]: -2.34 ± 0.08
IC50 ([1]; IC50, I102^3.32A/I421^7.39A, dose-response plot): 1590 nM
IC50 ([1]; pIC50 (Replicate), I102^3.32A/I421^7.39A, individual replicates): 2450 nM and 1150 nM and 1740 nM
IC50 ([1]; pIC50 ± SEM (Mean), I102^3.32A/I421^7.39A, mean of independent experiments): 1700 nM
